Results reported in PMC9808001 (2022).

Target: RAB1A (Homo sapiens (Human), UniProt P62820)
Experiment: BLI

RAB1A, sequence (P62820 6-177): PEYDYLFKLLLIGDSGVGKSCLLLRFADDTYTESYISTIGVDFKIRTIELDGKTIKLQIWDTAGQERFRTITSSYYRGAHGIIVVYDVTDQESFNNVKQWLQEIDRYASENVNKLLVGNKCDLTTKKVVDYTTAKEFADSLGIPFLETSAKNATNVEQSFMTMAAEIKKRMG

B1: WDR44 (protein)
chain: VMGPQRPRSNSGRELTDEEILASVMIKNLDTGEEIPLSLAEEKLPTGINPLTLHIM
  Kd: > 500 nM
